Experiments:
[1] = molecular target: EGFR on A-431 cells (EGFR-positive) (UniProt P00533); assay: flow cytometry on A-431 cells, Alexa Fluor 488 anti-human IgG secondary antibody
[2] = molecular target: Recombinant human EGFR-Fc (R&D Systems), biotinylated (human) (UniProt P00533); assay: SPR Biacore T200, biotinylated human EGFR-Fc on Biotin CAPture chip, antibody as analyte, single cycle kinetics, 1:1 model
[3] = molecular target: Biotinylated recombinant human FcRn (Immunitrack) (human) (UniProt P55899); assay: SPR Biacore T200, biotinylated human FcRn on chip SA, association at pH 6.0, single cycle kinetics, 1:1 model; dissociated at pH 7.4
[4] = molecular target: EGFR on A-431 cells (EGFR-positive) (UniProt P00533); assay: flow cytometry, primary antibody then Alexa Fluor 488 goat anti-human IgG (H+L), A-431 cells; histogram peak at about 10^5, gate from a little above 10^4
[5] = molecular target: HER2 on SKBR-3 cells (HER2-positive) (UniProt P04626); assay: flow cytometry, primary antibody then Alexa Fluor 488 goat anti-human IgG (H+L), SKBR-3 cells; histogram peak between 10^3 and 10^4, gate from a little below 10^3
[6] = molecular target: Recombinant human PD-1-Fc (R&D Systems), biotinylated (human) (UniProt Q15116); assay: SPR Biacore T200, biotinylated human PD-1-Fc on Biotin CAPture chip, antibody as analyte, single cycle kinetics, 1:1 model
Recombinant human PD-1-Fc (R&D Systems), biotinylated (human), sequence (Q15116 25-167 limits assumed): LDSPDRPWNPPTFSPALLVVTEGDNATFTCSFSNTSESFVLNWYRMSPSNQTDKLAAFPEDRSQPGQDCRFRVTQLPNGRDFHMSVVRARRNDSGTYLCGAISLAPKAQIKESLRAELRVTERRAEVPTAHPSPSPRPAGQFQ

[7] = molecular target: EGFR on A-431 cells (EGFR-positive) (UniProt P00533); assay: flow cytometry on A431 (EGFR+) cells, fraction of cells in the positive gate, x axis EGFR-BL-1H, Alexa Fluor 488 anti-human IgG secondary antibody
[8] = molecular target: HER2 on SKBR-3 cells (HER2-positive) (UniProt P04626); assay: flow cytometry on SKBR3 (HER2+) cells, fraction of cells in the positive gate, x axis HER2-BL-1H, Alexa Fluor 488 anti-human IgG secondary antibody
[9] = molecular target: PD-1 on CD3-activated human T cells (PD-1-positive) (human) (UniProt Q15116); assay: flow cytometry on CD3-activated human T cells (PD-1+), fraction of cells in the positive gate, x axis PD-1-BL-1H, Alexa Fluor 488 anti-human IgG secondary antibody
PD-1 on CD3-activated human T cells (PD-1-positive) (human), sequence (Q15116 25-288): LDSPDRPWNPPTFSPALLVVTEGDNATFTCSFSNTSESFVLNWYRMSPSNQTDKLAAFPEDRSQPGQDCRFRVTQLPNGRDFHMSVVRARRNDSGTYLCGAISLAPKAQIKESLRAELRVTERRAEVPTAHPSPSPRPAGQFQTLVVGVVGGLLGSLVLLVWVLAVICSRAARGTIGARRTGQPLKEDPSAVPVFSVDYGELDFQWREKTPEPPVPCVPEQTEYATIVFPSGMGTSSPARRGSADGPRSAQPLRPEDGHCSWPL

[10] = molecular target: Recombinant human HER2-Fc (R&D Systems), biotinylated (human) (UniProt P04626); assay: SPR Biacore T200, biotinylated human HER2-Fc on Biotin CAPture chip, antibody as analyte, single cycle kinetics, 1:1 model
[11] = molecular target: Recombinant human HER2-Fc (R&D Systems), biotinylated (human) (UniProt P04626); assay: SPR (Biacore T200), single cycle kinetics, ligand biotinylated HER2-Fc on Biotin CAPture chip, HBS-EP+, 1:1 binding model
[12] = molecular target: EGFR on A-431 cells (EGFR-positive) (UniProt P00533); assay: flow cytometry, primary antibody then Alexa Fluor 488 goat anti-human IgG (H+L), A-431 cells; histogram peak a little above 10^5, gate from a little above 10^4

| percent of cells with fluorescence [1] | Kd [2] | Kd [3] | percent of cells in the positive gate [4] | percent of cells in the positive gate [5] | Kd [6] | Positive cell (%) [7] | Positive cell (%) [8] | Positive cell (%) [9] | Kd [10] | Kd [11] | percent of cells in the positive gate [12] | Substance |
| --- | --- | --- | --- | --- | --- | --- | --- | --- | --- | --- | --- | --- |
| > 98% | 0.3 nM | 2.6 nM | 98.2% | 97.3% | – | – | – | – | – | – | – | DAR1 bi-specific antibody (Cetuximab-Trastuzumab Fab) (M-3) (bispecific antibody) |
| > 98% | – | 2.4 nM | – | – | 1.1 nM | 98.9% | 97.2% | 21.4% | – | – | – | Tri-specific antibody (Pembrolizumab Fab-Cetuximab-Trastuzumab Fab) (M-2) |
| > 98% | – | 2.4 nM | – | 97.9% | – | – | – | – | < 0.0019 nM | < 0.0019 nM | 99.6% | DAR1 bi-specific antibody (Trastuzumab-Cetuximab Fab) (M-4) (bispecific antibody) |

Reference: patent US20250101129A1, “AFFINITY SUBSTANCE, COMPOUND, AND ANTIBODY AND THEIR SALTS” (Ajinomoto Co., Inc., priority 2022, published 2025)
